Results from the supplement of paper PMC9732359.
± gives the uncertainty stated by the source.

Assay: protein stability index of a GFP-peptide fusion (yeast GPS) (PSI 1-4); higher = more stable; sorted into four equal gates, so the index is relative within each strain
Procedure, shortened: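 The protein stability index combines read frequencies across sorting gates, each weighted by its gate number and then summed. To obtain those frequencies, a pooled yeast library of GFP fusions to tiled 17-residue yeast protein peptides, on a plasmid also expressing Cherry, was grown to mid-log phase in leucine-free medium. The cells were sorted into four equal gates by GFP/Cherry ratio before plasmid amplification by PCR and Illumina sequencing.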

| Sequence | protein stability index (doa10∆) | protein stability index (pdr5∆) | protein stability index (san1∆) | protein stability index (ubr1∆) |
| --- | --- | --- | --- | --- |
| TDEHLIFNSGKMIILDK [ISW2] | 3 ± 0.24 | 2.74 ± 0.074 | 2.35 ± 0.1 | 2.59 ± 0.058 |
| RPKPVSPPCYIIDHIPG [SNF5] | 1.79 ± 0.098 | 2.64 ± 0.096 | 2.28 ± 0.12 | 2.25 ± 0.079 |
| RDDALVVETITSLLNKV [RRP42] | 2.88 ± 0.071 | 2.83 ± 0.048 | 3.1 ± 0.054 | 3.06 ± 0.045 |
| HITSVPISAVLRGCKFL [GRR1] | 1.77 ± 0.044 | 1.66 ± 0.048 | 1.86 ± 0.064 | 2.05 ± 0.037 |
| KNGTIVKKAVTVHSKSR [RPL19A] | 2.44 ± 0.068 | 2.8 ± 0.068 | 2.45 ± 0.079 | 1.96 ± 0.068 |
| LGKCSRITDASLFQLSK [GRR1] | 3.04 ± 0.11 | 3.14 ± 0.11 | 3.14 ± 0.093 | 2.88 ± 0.063 |
| HDEKTLAPSKHQPITSE [SIR4] | 2.08 ± 0.088 | 2.27 ± 0.1 | 2.33 ± 0.12 | 2.27 ± 0.22 |
| SPQLTAIIGLKSGTSHD [SNF12] | 1.52 ± 0.067 | 1.82 ± 0.074 | 1.84 ± 0.12 | 1.66 ± 0.065 |
| INGWKFESLPLKSAENS [SWP82] | 2.92 ± 0.067 | 3.25 ± 0.053 | 2.9 ± 0.055 | 3.03 ± 0.058 |
| LRLKPGRKYTTLGKLST [RPL16B] | 2.69 ± 0.057 | 2.64 ± 0.062 | 3.03 ± 0.036 | 2.97 ± 0.037 |
| YNTSILEFRWLTSSKSV [SIN4] | 1.79 ± 0.065 | 1.91 ± 0.081 | 1.96 ± 0.079 | 2.48 ± 0.1 |
| PHDLIIGTADIFIRQLK [BRR2] | 2.11 ± 0.057 | 2.51 ± 0.069 | 2.27 ± 0.073 | 2.49 ± 0.052 |
| LLDILVKGETRIQNRVK [PRP8] | 3.38 ± 0.14 | 2.98 ± 0.097 | 3.49 ± 0.096 | 2.94 ± 0.068 |
| KIMVAEWYLSHLCSGIL [SRB8] | 1.35 ± 0.056 | 1.39 ± 0.057 | 1.24 ± 0.077 | 1.47 ± 0.049 |
| DLISEILKWVQWSRIVL [MED1] | 3.48 ± 0.12 | 3.33 ± 0.11 | 3.08 ± 0.064 | 3.54 ± 0.061 |
| RNEEILRDIGECENEIK [SMC2] | 2.75 ± 0.094 | 2.94 ± 0.075 | 2.49 ± 0.12 | 3.23 ± 0.11 |
| EASNTPIEHQFNPYGDN [PRE7] | 3.15 ± 0.08 | 3.33 ± 0.089 | 3.54 ± 0.091 | 3.38 ± 0.086 |
| FHVGFIAKIKKVCECVC [RPO21] | 1.15 ± 0.046 | 1.27 ± 0.064 | 1.43 ± 0.11 | 1.26 ± 0.059 |
| LLEKYNTNELKEVSSFL [MTR3] | 3.05 ± 0.054 | 2.76 ± 0.054 | 3.23 ± 0.046 | 3.1 ± 0.053 |
| LLRIQMLLCVSYFLQER [PCI8] | 1.29 ± 0.046 | 1.45 ± 0.044 | 1.35 ± 0.074 | 1.22 ± 0.052 |
| IKKIVADLKKGKDLSPA [QCR2] | 3.5 ± 0.24 | 3.15 ± 0.2 | 3.11 ± 0.26 | – |
| FSTNVKDEIVLSGNSVE [RPL9A] | 2.03 ± 0.13 | 2.18 ± 0.13 | 2.34 ± 0.13 | 2.59 ± 0.054 |
| TEDRYNEYVAKVSAREK [FAS2] | 3.2 ± 0.086 | 3.14 ± 0.074 | 3.04 ± 0.094 | 3.3 ± 0.06 |
| KREKRVFLKHSLSIKLA [RPN6] | 2.58 ± 0.083 | 3.22 ± 0.09 | 2.75 ± 0.086 | 2.81 ± 0.094 |
| GSAADTQAIADIVQYHL [PRE3] | – | 3.26 ± 0.19 | 2.88 ± 0.17 | 2.99 ± 0.13 |
| NIFKAEMDSVSKSMKFS [CSN9] | 2.58 ± 0.065 | 2.58 ± 0.066 | 2.71 ± 0.051 | 2.85 ± 0.044 |

| Sequence | protein stability index (doa10∆) | protein stability index (pdr5∆) | protein stability index (san1∆) | protein stability index (ubr1∆) |
| --- | --- | --- | --- | --- |
| HATVVPPEEFSNTIDEL [SRB7] | 3.19 ± 0.071 | 3.25 ± 0.09 | 2.89 ± 0.1 | 3.02 ± 0.089 |
| MEYLKSSKSLDLNTRIS [RPN5] | 2.83 ± 0.057 | 1.69 ± 0.051 | 2.34 ± 0.063 | 2.61 ± 0.055 |
| IVPVISTIENVLFYIGR [COB] | 1.85 ± 0.059 | 1.68 ± 0.042 | 2.4 ± 0.058 | 2.34 ± 0.056 |
| VEVIKQLSLDASKTNLR [GAL11] | 2.51 ± 0.063 | 2.62 ± 0.073 | 3.24 ± 0.077 | 2.71 ± 0.049 |
| GIQEVVHNTNSFIISSL [NUT1] | 2.12 ± 0.074 | 2.46 ± 0.059 | 2.04 ± 0.087 | 2.54 ± 0.066 |
| WLNFLRGTIPLLERYIG [PRP8] | 1.41 ± 0.068 | 1.23 ± 0.046 | 1.18 ± 0.077 | 1.1 ± 0.065 |
| MAAQKSFRIKQKMAKAK [RPL39] | 2.75 ± 0.072 | 2.97 ± 0.11 | 2.25 ± 0.083 | 2.74 ± 0.08 |
| QQTAKKLIPKLYRYRFD [ECM29] | 2.24 ± 0.13 | 2.35 ± 0.1 | 2.24 ± 0.14 | 1.21 ± 0.087 |
| DTDNECVAAWGVCNHAF [HRT1] | 3.25 ± 0.095 | 3.3 ± 0.059 | 3.33 ± 0.054 | 3.15 ± 0.05 |
| LLLAAQIVSYCSNNKNS [SSN2] | 1.17 ± 0.045 | 1.42 ± 0.048 | 1.23 ± 0.083 | 1.34 ± 0.045 |
| NSDDFFMDNSYDIDEID [ESC2] | 2.27 ± 0.058 | 2.64 ± 0.077 | 2.64 ± 0.075 | 2.31 ± 0.051 |
| LPGELAKHAVSEGTRAV [HTB1] | 3.22 ± 0.11 | 3.46 ± 0.12 | 3.42 ± 0.071 | 3.31 ± 0.088 |
| QIEGPFLIIVPKSTLDN [ISW2] | 2.88 ± 0.13 | 2.12 ± 0.1 | 2.17 ± 0.088 | 1.75 ± 0.097 |
| IQTKEQVSINSNKILVY [YIL149C/MLP2] | 2.21 ± 0.076 | 2.75 ± 0.17 | 1.85 ± 0.21 | 2.96 ± 0.15 |
| TMGEETAKKDMSSTTPK [SNF12] | 2.58 ± 0.07 | 3.03 ± 0.076 | 3.31 ± 0.1 | 3.27 ± 0.079 |
| DPETTATQKESLEMVPK [RGR1] | 3.12 ± 0.063 | 3.07 ± 0.054 | 2.94 ± 0.048 | 3.11 ± 0.046 |
| NLMILNTKVPVDIVNQW [YML103C/NUP188] | 1.68 ± 0.071 | 2.12 ± 0.084 | 1.84 ± 0.13 | 2.08 ± 0.055 |
| LEASLNSITKDNIDYAP [YJL039C/NUP192] | 2.7 ± 0.05 | 2.43 ± 0.041 | 2.47 ± 0.039 | 2.27 ± 0.026 |
| HRLTLEDPVTVEYLTRY [PRE6] | 3.33 ± 0.19 | 3.64 ± 0.24 | 3.01 ± 0.19 | 2.68 ± 0.22 |
| HGAASFLKERLMEASDA [RPB2] | 1.37 ± 0.15 | 1.48 ± 0.09 | 1.1 ± 0.18 | 1.03 ± 0.087 |
| SGEDAEEELWNSPSKGN [YIL149C/MLP2] | 3.15 ± 0.13 | 3.25 ± 0.084 | 3.28 ± 0.058 | 3.21 ± 0.065 |
| IMYQQMLKYRRLFIGDQ [SNF2] | 1.45 ± 0.052 | 1.22 ± 0.04 | 1.3 ± 0.12 | 1.42 ± 0.03 |
| GNPTNISSPIVANSPNK [YDL088C/ASM4] | 1.3 ± 0.13 | 2.06 ± 0.14 | – | 1.82 ± 0.1 |
| SDIESLEALMDILLCYQ [SRB8] | 2.84 ± 0.13 | 2.74 ± 0.2 | 3.03 ± 0.19 | 2.29 ± 0.2 |
| EVRRAAMLNLINDNNTR [YCG1] | 3.32 ± 0.12 | 3.41 ± 0.11 | 2.94 ± 0.11 | 3.13 ± 0.1 |
